Ends that are not written are not given here.
B5: rat-mouse chimeric recombinant antibody 5811 mFab (Fab, V domains shown)
VH: EMQLVESGGGLVQPKESLKISCAASGFTFNNAAMYWVRQAPGKGLEWVARIRTKPNNYATSYADSVKGRFTISRDDSKSMVYLQMDNLKSEDTAMYYCTADYSRGDRWGQGVMVTVSS
VL: NIQMTQSPPVLSASVGDRVTLSCKASQNINKNLDWYQQKHGEAPKLLMYYANNLQTGIPSRFSGSGSGTDYTLTISSLQPEDVATYYCYQYKNGWTFGGGTKLELKR

Experiments:
[1] = molecular target: T1, recombinant human alpha synuclein fibrils (human, UniProt P37840 1-140); experiment: kinetics on alpha synuclein fibrils; method not named in Example 4 (ka1/kd1 as in the Biacore bivalent analyte model)
[2] = molecular target: T1, recombinant human alpha synuclein …; experiment: cell-based or functional assay
[3] = molecular target: T1, recombinant human alpha synuclein …; experiment: kinetics on human fibril; method not named (same values as Table 5)
[4] = molecular target: T1, recombinant human alpha synuclein …; experiment: cell-based or functional assay; remark: listed apart in the source
[5] = molecular target: B5; experiment: competitive SPR (Biacore 3000): 50 nM 5811 mFab pre-incubated with 1 µM peptide, injected over immobilised human alpha synuclein monomer and fibrils
Description: Recombinant human alpha synuclein monomer and pre-formed alpha synuclein fibrils were immobilized on a CM5 chip using a Biacore 3000 instrument (GE Healthcare). Following activation of the carboxymethyl dextran surface by injection of 100 μl of a fresh 1:1 (v/v) mixture of 50 mM N-hydroxysuccimide and 200 mM 1-ethyl-3-(3-dimethylaminopropyl)-carbodiimide at a flow rate of 10 μl/min HBS-EP (GE Healthcare) as running buffer, coupling was achieved by injecting 100 μl of monomer and fibrils, at 5 μM in 10 mM acetate pH 5.0, over separate flow cells. A reference flow cell was activated in the same manner and then all flow cell surfaces were deactivated with a 50 μl pulse of 1 M ethanolamine.HCl pH 8.5.
Peptide solutions were prepared in running buffer at 100 μM and a peptide blank control prepared as a 1 in 100 dilution of DMSO in running buffer. […] Sensograms were recorded for each sample by injecting 30 μl of the mixture at 10 μl/min and recording a report point 5 seconds before the end of the injection. The chip was regenerated at the end of each cycle by two 10 μl injections of 40 mM HCl and one injection of 5 mM NaOH. Control cycles were alternated with peptide cycles.

[6] = molecular target: T2, recombinant full-length human alpha synuclein monomer (human, UniProt P37840 1-140); experiment: SPR (Biacore T200), antigen amine-coupled to CM5 chip, Fab as analyte, 1:1 model
Description: (§1) Interaction kinetics were determined by using surface plasmon resonance technology on a Biacore T200 instrument. Three different ligands including recombinant full-length human alpha synuclein monomer, purified recombinant human alpha synuclein fibrils, and purified recombinant mouse alpha synuclein fibrils, prepared as described herein, were each immobilized on three different flow cells of a CM5 chip surface using amine-coupling chemistry. The three ligands were prepared in 10 mM NaAc, pH 3.5, and immobilized onto separate flow cell surfaces to reach an immobilization level of about 30 response units (RU) for alpha synuclein monomer, about 40 RU for human alpha synuclein fibrils, and about 300 RU for mouse alpha synuclein fibrils respectively, at a flow rate of 10 μl/min. The buffer HBS-EP+(GE healthcare Bio-Sciences AB) was used as running buffer for both ligand immobilization and kinetics assay. […] The surface was regenerated by one injection of 50 mM HCl for 90 s at 10 μl/min, and another injection of 50 mM HCl for 60 s at 10 μl/min. The data were analyzed using the Biacore T200 evaluation software (version 3.0) using the bivalent analyte model with assumed no bulk contribution (RI=0) and global Rmax for mIgG1 format, and 1:1 model with flexible bulk contribution (local RI) and global Rmax.

[7] = molecular target: T1, recombinant human alpha synuclein …; experiment: as above
Description: as §1

[8] = molecular target: T3, recombinant mouse alpha synuclein fibrils (mouse, UniProt O55042 1-140); experiment: as above
Description: as §1

[9] = molecular target: T4, biotinylated peptide corresponding to residues 117 to 126 of human alpha synuclein (PVDPDNEAYE) (human, also: biotinylated, position not given here); experiment: streptavidin-capture ELISA on biotinylated peptide PVDPDNEAYE, HRP secondary antibody, TMB, OD 630 nm
T4 construct: Captured on streptavidin plates for the ELISA
T4 peptide: PVDPDNEAYE

[10] = molecular target: T2, recombinant full-length human alpha …; experiment: SPR (Biacore T200), antigen amine-coupled to CM5 chip, IgG as analyte, bivalent analyte model (KD1)
Description: as §1

[11] = molecular target: T1, recombinant human alpha synuclein …; experiment: as above
Description: as §1

[12] = molecular target: T3, recombinant mouse alpha synuclein …; experiment: as above
Description: as §1

[13] = molecular target: T5, human beta synuclein (rPeptide) (human, UniProt Q16143 1-134); experiment: Western blot
T5 construct: also called rPeptide beta synuclein; human betα-synuclein
T5 sequence (Q16143 whole entry): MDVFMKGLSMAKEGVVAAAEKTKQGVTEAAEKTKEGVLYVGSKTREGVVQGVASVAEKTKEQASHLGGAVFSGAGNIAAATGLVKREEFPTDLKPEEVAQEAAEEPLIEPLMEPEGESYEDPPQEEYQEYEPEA
Description: The binding of antibodies raised against human alpha synuclein to human beta synuclein were tested by Western blot using rPeptide beta synuclein. […] The membrane was blocked in PBS with 3% BSA and 0.1% Tween20. […] The blot was washed extensively in PBS with 0.1% Tween20, PBS and water. Chemi-luminescence was measured after addition of ECL Western blot substrate (Pierce).
The blot was washed after 1-hour incubation at room temperature with 0.1% Tween in PBS.

B1: Antibody 5811gL8gH4 IgG4P (antibody, V domains shown)
VH: EVQLVESGGGLVKPGGSLRLSCAASGFTFNNAAMYWVRQAPGKGLEWVARIRTKPNNYATSYADSVKGRFTISRDDSKNTLYLQMNSLKTEDTAVYYCTADYSRGDRWGQGTMVTVSS
VL: DIQMTQSPSSLSASVGDRVTITCKASQNINKNLDWYQQKPGKAPKLLIYYANNLQTGVPSRFSGSGSGTDFTLTISSLQPEDFATYYCYQYKNGWTFGQGTKVEIKR
[1]
  Kd: 0.0159 nM
  koff: 5.17e-05 s⁻¹
  kon: 3.26e+06 M⁻¹ s⁻¹
[2]
  IC50, aggregation assay on mouse primary neurons (pSer129 alpha synuclein signal): < 5 nM
  IC50, cell-based aggregation assay (HEK cells expressing alpha synuclein, % pSer129+ cells): ≤ 5 nM

B2: Antibody 5811gL14gH4 IgG4P (antibody, V domains shown)
VH: EVQLVESGGGLVKPGGSLRLSCAASGFTFNNAAMYWVRQAPGKGLEWVARIRTKPNNYATSYADSVKGRFTISRDDSKNTLYLQMNSLKTEDTAVYYCTADYSRGDRWGQGTMVTVSS
VL: DIQMTQSPSSLSASVGDRVTITCKASQNINKNLDWYQQKPGKAPKLLIYYANNLQTGVPSRFSGSGSGTDFTLTISSLQPEDFATYYCYQYKNAWTFGQGTKVEIKR
[1]
  Kd: 0.0185 nM
  koff: 2.04e-05 s⁻¹
  kon: 1.1e+06 M⁻¹ s⁻¹
[2]
  IC50, aggregation assay on mouse primary neurons (pSer129 alpha synuclein signal): < 5 nM
  IC50, cell-based aggregation assay (HEK cells expressing alpha synuclein, % pSer129+ cells): ≤ 5 nM

B3: Antibody 5811gL5gH4 IgG4P (antibody, V domains shown)
VH: EVQLVESGGGLVKPGGSLRLSCAASGFTFNNAAMYWVRQAPGKGLEWVARIRTKPNNYATSYADSVKGRFTISRDDSKNTLYLQMNSLKTEDTAVYYCTADYSRGDRWGQGTMVTVSS
VL: DIQMTQSPSSLSASVGDRVTITCKASQNINKNLDWYQQKPGKAPKLLIYYANNLQTGVPSRFSGSGSGTDYTLTISSLQPEDFATYYCYQYKNGWTFGQGTKVEIKR
notes: also called VR5811
[3]
  Kd: 0.015 nM
  koff: 4.1e-05 s⁻¹
  kon: 2.74e+06 M⁻¹ s⁻¹
[1]
  Kd: 0.015 nM
  koff: 4.1e-05 s⁻¹
  kon: 2.74e+06 M⁻¹ s⁻¹
[2]
  IC50, aggregation assay on mouse primary neurons (pSer129 alpha synuclein signal): < 5 nM
  IC50, cell-based aggregation assay (HEK cells expressing alpha synuclein, % pSer129+ cells): ≤ 5 nM
[4]
  IC50 (nM), cell-based aggregation assays: < 5 nM

## Ac-DNEAYEMPSE-NH2 [peptide AS121-130]
[5]
  binding result: no binding (tested: 1 µM)

## Ac-YEMPSEEGYQ-NH2 [peptide AS125-134]
[5]
  binding result: no binding (tested: 1 µM)

B4: peptide AS104-113 (peptide)
peptide: Ac-EEGAPQEGIL-NH2
notes: Synthetic peptide of human alpha synuclein
[5]
  binding result: no binding (tested: 1 µM)

## Ac-EAYEMPSEEG-NH2 [peptide AS123-132]
[5]
  binding result: no binding (tested: 1 µM)

## Ac-EGYQDYEPEA-OH (also called AS131-140) [131-140]
[5]
  binding result: no binding (tested: 1 µM)

## Ac-MPSEEGYQDY-NH2 [peptide AS127-136]
[5]
  binding result: no binding (tested: 1 µM)

## Ac-SEEGYQDYEP-NH2 [129-138]
[5]
  binding result: no binding (tested: 1 µM)

## Ac-GILEDMPVDP-NH2 [peptide AS111-120]
[5]
  binding result: no binding (tested: 1 µM)

## B5
[6]
  Kd: 0.29 nM
[7]
  Kd: 0.6 nM
[8]
  Kd: 42.9 nM
[9]
  EC50 (read off the curve): ~0.4 µg/mL

B6: Chimeric rat-human 5811 antibody (antibody, V domains shown)
VH: EMQLVESGGGLVQPKESLKISCAASGFTFNNAAMYWVRQAPGKGLEWVARIRTKPNNYATSYADSVKGRFTISRDDSKSMVYLQMDNLKSEDTAMYYCTADYSRGDRWGQGVMVTVSS
VL: NIQMTQSPPVLSASVGDRVTLSCKASQNINKNLDWYQQKHGEAPKLLMYYANNLQTGIPSRFSGSGSGTDYTLTISSLQPEDVATYYCYQYKNGWTFGGGTKLELK
notes: It was prepared like the humanized antibodies, with the human kappa constant region (Km3) and human gamma-4 with S241P (IgG4P); also called parental rat-human antibody
[1]
  Kd: 0.0156 nM

B7: rat-mouse chimeric recombinant antibody 5811 mIgG1 (antibody, V domains shown)
VH: EMQLVESGGGLVQPKESLKISCAASGFTFNNAAMYWVRQAPGKGLEWVARIRTKPNNYATSYADSVKGRFTISRDDSKSMVYLQMDNLKSEDTAMYYCTADYSRGDRWGQGVMVTVSS
VL: NIQMTQSPPVLSASVGDRVTLSCKASQNINKNLDWYQQKHGEAPKLLMYYANNLQTGIPSRFSGSGSGTDYTLTISSLQPEDVATYYCYQYKNGWTFGGGTKLELKR
[10]
  Kd: 0.53 nM
[11]
  Kd: 0.03 nM
[12]
  Kd: 119 nM
[13]
  binding result: no binding (tested: 1 micro gram of synuclein per lane)

## Ac-LEDMPVDPDN-NH2 [peptide AS113-122]
[5]
  binding result: binds

## Ac-DPDNEAYEMP-NH2 [peptide AS119-128]
[5]
  binding result: binds

## Ac-DMPVDPDNEA-NH2 [peptide AS115-124]
[5]
  binding result: binds

## Ac-QEGILEDMPV-NH2 [peptide AS109-118]
[5]
  binding result: no binding (tested: 1 µM)

Reference: patent US20210101964A1 (UCB, published 2021)
